Results reported in the supplement of paper PMC10567573.
± gives the standard deviation.

Assay: protein stability index of a GFP-peptide fusion (GPS, HEK-293T) (PSI 1-6); higher = more stable
Conditions: c terminus: a fixed tail appended
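Further: 24-mer peptide tiles fused after GFP, lentivirally expressed, FACS-sorted into six equal bins by GFP/DsRed ratio, decoded by Illumina sequencing, PSI is the read-weighted mean bin number.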

Sequence | protein stability index (treatment: DMSO) | protein stability index (treatment: MLN4924 1 uM, 8 h)
ADWFMSLGVGLLTFASLETVGIYF [TMEM40] | 3.37 ± 0.22 | 3.04 ± 0.52
QVADINDNPPTFSQVSYFTYIPEN [PCDHGA10] | 2.98 ± 0.32 | 3.09 ± 0.3
PLRERARKLSQGILIIRFEMPYNI [YJU2B] | 2.9 ± 0.7 | 2.62 ± 0.39
PDVTRVGLLQYGSTVKNEFSLKTF [MATN2] | 2.94 ± 0.23 | 2.85 ± 0.44
MTTSHQPQDRYKAVWLIFFMLGLG [SLC29A1] | 2.52 ± 0.61 | 2.41 ± 0.43
EELEEDIRKKLKDSGDVSNVIEKV [RHOBTB3] | 5.37 ± 0.31 | 5.5 ± 0.25
EWARALETRDWGGAQFEGEKGRAL [ZSWIM9] | 3.88 ± 0.3 | 3.9 ± 0.31
GVQREAQRIALRLGNGNDKKEMNK [KMT2E] | 4.8 ± 0.26 | 4.78 ± 0.28
ESPFSRKLDLWSFLDIPRSRLVKY [NET1] | 2.06 ± 0.14 | 2.15 ± 0.21
EKEIEEATKKLGFKHPVIGVHVRR [FUT8] | 3.99 ± 0.29 | 3.9 ± 0.51
LPDNYEIIDSSLEDITYVLKPTFT [USP39] | 2.87 ± 0.39 | 2.8 ± 0.47
QPKKPEDEPQETAYRTQVSSCCLH [PKD2L1] | 4.88 ± 0.27 | 4.96 ± 0.05
GNMFPTIGDVHLAPFTDEQLYMEQ [CARM1] | 3.93 ± 0.27 | 4.12 ± 0.19
RKHIIEGLKASLERLQLEYVDVVF [KCNAB2] | 2.94 ± 0.58 | 3 ± 0.53
RLSTSPVRLAARQEDAPMIEPLVP [EPB41L3] | 4.6 ± 0.18 | 4.63 ± 0.43
KIVLCAVSHVFMLLFNVKSPTDIQ [RHOBTB3] | 3.16 ± 0.17 | 3.09 ± 0.22
TSRTQVYKPPALKKSNSPGTASSG [ZC2HC1A] | 4.42 ± 0.15 | 4.46 ± 0.17
ELDEEEVKAATTEPTEVEEVVPAL [BCL2L13] | 5.44 ± 0.28 | 5.54 ± 0.13
QNIYKCIMLKNISQDERLDVLLTL [IQUB] | 2.5 ± 0.098 | 2.61 ± 0.51
RGNHESRQITQVYGFYDECLRKYG [PPP2CA] | 2.75 ± 0.4 | 2.59 ± 0.19
GEPQQDCCVKTELLGEETPMAADE [EHMT1] | 5.55 ± 0.25 | 5.53 ± 0.14
IELQAQHSMRNSLESTLAETEARY [KRT36] | 4.38 ± 0.15 | 4.23 ± 0.23
IDAIYSVIDDAKQYVYIAVMDYLP [PLD5] | 3.55 ± 0.11 | 3.73 ± 0.42

Sequence | protein stability index (treatment: DMSO) | protein stability index (treatment: MLN4924 1 uM, 8 h)
SAHRALYRRHVLGIVLQGPALCFA [TMEM175] | 2.71 ± 0.62 | 2.58 ± 0.62
METLCLRASFWLALVGCVISDNPE [EDNRA] | 3.25 ± 0.19 | 2.7 ± 0.75
GVWAVIISHQQCWASTSPGTDLPL [TRIM15] | 2.75 ± 0.97 | 2.67 ± 0.18
WGRLTSYSGGGYYLDLPGSRQGSA [PKD2L1] | 2.63 ± 0.18 | 2.69 ± 0.18
GPLDIWAVVKPGNTKEKIAFFASH [FBXO34] | 2.45 ± 0.27 | 2.78 ± 0.21
EEGVVGGLSGGALSPLRAASDPLL [TFE3] | 4.33 ± 0.31 | 4.63 ± 0.4
SETDFETEPETAPTTEPETEPEDD [GNAS] | 5.69 ± 0.19 | 5.581 ± 0.055
CTLGDPNKLPEGVPQPARMPYISD [KLHL20] | 4.13 ± 0.24 | 4.18 ± 0.15
QLSELRSEMECQNQEYKMLLDIKT [KRT13] | 4.09 ± 0.12 | 4 ± 0.29
EQEPIGTDLDAVRTPEPLEEFPKR [MYBL2] | 5.57 ± 0.2 | 5.18 ± 0.46
REPPQAVSIKEAAGSSNLPAPERT [VENTX] | 5.26 ± 0.3 | 5.2 ± 0.54
DYEAGTLSFYNVTDRSHIYTFTDT [TRIM39] | 2.58 ± 0.38 | 2.69 ± 0.28
APEAKDGSSFSGRVFRVTFLMLAV [APMAP] | 3.47 ± 0.77 | 2.77 ± 0.75
IDSHLLLSVLPQLEFKLKSNDNEE [PDS5B] | 3.32 ± 0.27 | 3.09 ± 0.096
VSERSFDNVRSLKVESGAWIGYEH [CRYBA1] | 2.91 ± 0.47 | 3.02 ± 0.33
KWLSCGFMLEIVTPTSLSSLSNAV [FBXO33] | 3.04 ± 0.57 | 3.57 ± 0.76
PRCPRMVLSLKEGAREEDLDAVEA [FBXO3] | 5.32 ± 0.36 | 5.27 ± 0.17
SEEYRAPRPQSEESWDEEDKRNYP [CHGB] | 5.47 ± 0.19 | 5.42 ± 0.3
EFPDFYDSEEPVSTHQEAENEKDR [CHGB] | 5.68 ± 0.25 | 5.54 ± 0.24
IFQMVIICLMCVHSLERAGSKQYS [SMG5] | 3.21 ± 0.28 | 3.27 ± 0.48
MVGQKDSVILSVKFSPFGQWWASV [TLE6] | 2.95 ± 0.35 | 2.89 ± 0.35
GGGLTGVSGSHFVGVDGVRAFLQT [PCDHGA10] | 2.82 ± 0.29 | 2.83 ± 0.32
